This assay concerns the target geCHO.sE2.7 (secreted HCV E2 ectodomain produced in glycoengineered CHO line 7) (hepatitis C virus, genotype 1a (H77C)). The assay can be described thus: ELISA. On the technique in general: An ELISA detects its analyte on a solid surface through an enzyme-linked reagent.

This passage reports OD results from PMC12159149.

On to “CD81 large extracellular loop (LEL)-Fc fusion”, for which the OD at 450 nm at the highest concentration of CD81-LEL-Fc (2.8 μM) is 0.4 OD.
